Publication PMC7612964

Target: Flag-NLS-Actin wt
Assay: proximity ligation

Substance: endogenous BRM (from UniProt P51531 1-1590) (natural protein)
- % PLA-positive cells (spread cells, high mechanical inputs): 94.7%
